Measured values reported in article PMC5818494, “Specific Recognition of Arginine Methylated Histone Tails by JMJD5 and JMJD7” (Scientific Reports, 2018).
Like-named read-outs stand apart in the source and are kept apart here.

Tests used:
[1] = target: calf bulk histone; assay: SPR; Biacore; 10 μg/ml calf bulk histone in 50 mM sodium acetate pH 5.0 coated onto a CM5 chip; enzyme injected at different concentrations; room temperature; non-linear binding kinetics, ranges estimated
[2] = target: calf bulk histone; assay: as above; remark: listed apart in the source
[3] = target: histone H3 peptide (pH3) N-terminal tail peptide (Homo sapiens) (UniProt P68431); assay: fluorescence polarization; details: cited from earlier work
[4] = target: histone H3 peptide pH3R2me2a N-terminal tail peptide (Homo sapiens) (UniProt P68431); assay: fluorescence polarization; details: cited from earlier work
[5] = target: histone H3 peptide pH3K4(me2) N-terminal tail peptide (Homo sapiens) (UniProt P68431); details: cited from earlier work

c-JMJD5 catalytic core, sequence (Q8N371 183-416): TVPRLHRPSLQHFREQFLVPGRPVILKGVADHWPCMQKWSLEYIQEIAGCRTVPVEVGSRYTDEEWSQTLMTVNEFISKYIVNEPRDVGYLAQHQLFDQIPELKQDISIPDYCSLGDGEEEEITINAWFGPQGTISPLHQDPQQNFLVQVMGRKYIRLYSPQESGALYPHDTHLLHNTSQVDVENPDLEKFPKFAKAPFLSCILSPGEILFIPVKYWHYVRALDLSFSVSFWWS
c-JMJD5 (JMJD5 residues 183–416, lacking the N-terminal domain), sequence (Q8N371 183-416): as above
JMJD7 (mouse), JMJD7 protein alone generated from GST-JMJD7 fusion protein, sequence (P0C872 whole entry, the tested form may be a part): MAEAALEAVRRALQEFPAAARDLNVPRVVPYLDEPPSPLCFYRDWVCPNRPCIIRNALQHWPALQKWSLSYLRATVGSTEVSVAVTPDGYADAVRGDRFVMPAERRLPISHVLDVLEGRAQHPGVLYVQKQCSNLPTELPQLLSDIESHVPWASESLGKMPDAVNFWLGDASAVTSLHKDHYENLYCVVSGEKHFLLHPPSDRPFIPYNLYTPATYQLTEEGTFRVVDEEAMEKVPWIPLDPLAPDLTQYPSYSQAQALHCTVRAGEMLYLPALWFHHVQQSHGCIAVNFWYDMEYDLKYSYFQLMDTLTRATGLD

Substance: c-JMJD5 (JMJD5 residues 183–416, lacking the N-terminal domain) (from UniProt Q8N371 183-416) (domain or fragment)
- Kd [1]: 1 to 10 µM
- Kd [2]: 1 to 50 µM

Substance: c-JMJD5 catalytic core (from UniProt Q8N371)
- Kd [3]: 7 µM
- Kd [4]: 0.112 µM
- Kd [5]: 4 µM

Substance: JMJD7 (mouse), JMJD7 protein alone generated from GST-JMJD7 fusion protein (from UniProt P0C872 1-316) (enzyme)
- Kd [1]: 1 to 10 µM
- Kd [2]: 1 to 50 µM
